Measurements as given in publication PMC11229354, “PRMT5-mediated arginine methylation of FXR1 is essential for RNA binding in cancer cells”.

Columns and labels:
Assay in all cases: EMSA; 150 mM KCl, 1 mM Mg2+; EMSA: 50 mM Tris-HCl pH 7.4, 1 mM MgCl2, 0.1 mM EDTA, 150 mM KCl (or LiCl, printed LiCl2), 1 mM DTT, 1 U/ul RNase inhibitor, 100 ug/ml BSA, ~25 C, 20 min; 0.5 pmol RNA in 10 ul
Settings in all cases: protein: recombinant; tags: N-terminal GST (pGEX-6P-1); label: 5' 32P or 5' ATTO 550; intramolecular G4 (plausible structure)
GST-FXR1 S382-P476 R386K = GST-FXR1 S382-P476 R386K (human, UniProt P51114 382-476, R386K)
GST-FXR1 S382-P476 WT = GST-FXR1 S382-P476 WT (human, UniProt P51114 382-476)
[1] = target: GST-FXR1 S382-P476 R386-459K (human, UniProt P51114 382-476, R386K;R388K;R453K;R455K;R459K)
GST-FXR1 S382-P476 R386-459K, sequence (P51114 382-476 R386K/R388K/R453K/R455K/R459K): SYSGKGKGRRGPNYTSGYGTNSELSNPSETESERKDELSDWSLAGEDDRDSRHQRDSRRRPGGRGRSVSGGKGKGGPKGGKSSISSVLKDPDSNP

GST-FXR1 S382-P476 WT, sequence (P51114 382-476): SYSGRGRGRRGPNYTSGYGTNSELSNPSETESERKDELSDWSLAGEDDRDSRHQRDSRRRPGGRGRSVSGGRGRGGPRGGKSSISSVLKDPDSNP
GST-FXR1 S382-P476 R386K, sequence (P51114 382-476 R386K): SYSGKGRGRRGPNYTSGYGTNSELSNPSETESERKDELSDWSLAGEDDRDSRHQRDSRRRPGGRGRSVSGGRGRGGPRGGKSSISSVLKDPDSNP

Binder: GGGGGUGAGGGUCCCAUGUGGUGGCACAGG (structured_RNA) [30-mer p21 3'UTR G4-RNA (seg1)]
- binding result (GST-FXR1 S382-P476 R386K): no binding
- Kd (GST-FXR1 S382-P476 WT): 25 nM
- binding result [1]: no binding
